The text below walks through data of patent US20090221680, “Aptamers that bind thrombin with high affinity” (published 2009).

For data set [1], the target named is thrombin (alpha-thrombin) (Homo sapiens, UniProt P00734;P00734 P00734:315-363,P00734:364-622). The data set can be described thus: filter; 10 nM thrombin.
In data set [2] the target is prothrombin (Homo sapiens, UniProt P00734 P00734:44-622). The experiment in a line: filter; 50 nM prothrombin. Conditions: tags: Athens Research. The method, then: Dot blot binding assays were performed throughout the selections to monitor the protein binding affinity of the pools. Trace ³²P-labeled RNA was combined with a dilution series of human Thrombin (1 nM-1000 nM) and incubated at room temperature for 30 minutes in 1×DPBS (w/ Ca²⁺ and Mg²⁺) (Gibco, Catalog #14040, Invitrogen, Carlsbad, Calif.) plus 0.1 mg/ml BSA in a final volume of 30 μl. The binding reactions were analyzed by nitrocellulose filtration using a Minifold I dot-blot, 96-well vacuum filtration manifold (Schleicher & Schuell, Keene, N.H.). A three-layer filtration medium was used, consisting (from top to bottom) of Protran nitrocellulose (Schleicher & Schuell, Keene, N.H.), Hybond-P nylon (Amersham Biosciences, Piscataway, N.J.) and GB002 gel blot paper (Schleicher & Schuell, Keene, N.H.). RNA that is bound to protein is captured on the nitrocellulose filter, whereas the non-protein bound RNA is captured on the nylon filter. The gel blot paper was included simply as a supporting medium for the other filters. Following filtration, the filter layers were separated, dried and exposed on a phosphor screen (Amersham Biosciences, Piscataway, N.J.) and quantified using a Storm 860 Phosphorimager® blot imaging system (Amersham Biosciences, Piscataway, N.J.).
Based on pool binding monitored throughout the selections as described above, Round 9 Pools from both Selection #2 and #3 were also cloned using a TOPO TA Cloning kit (Invitrogen, Carlsbad, Calif.) according to manufacturer's instructions, and sequenced. Of the 136 sequences obtained from Round 9 of both selections, 130 unique sequences were selected for assaying in a single-point dot blot screen against thrombin and prothrombin to test for selective binding to thrombin. Clones were ordered from IDT (Coralville, Iowa) at 25 μmole synthesis scale. Clone transcripts were 5′ end labeled with γ̅³²P ATP and spin purified with Centrisep columns (Princeton Separations, Adelphia, N.J.) to remove excess label. Trace amounts of labeled clone were incubated with +/−10 nM Thrombin (or +/−50 nM prothrombin) and 0.1 mg/ml BSA in a total volume of 30 μl 1×DPBS (w/ Ca²⁺ and Mg²⁺) (Gibco, Catalog #14040, Invitrogen, Carlsbad, Calif.) for 30 minutes. Post incubation, the binding reaction applied the dot-blot binding assay apparatus previously described.

For TCCCCATCGATCCTGGTCTCTTTTGTTCTGGGTGGCTGAGGATCGATC (ssDNA) [AMX(399)_G11], the binding signal in data set [1] was 12.8 % bound; in data set [2], 11.8 % bound.

Consider TCCCTATCGAGCTGTGGTAGTATTCTGGTTTGGGTGGCTGAGGATCGATC (ssDNA) [AMX(398)_A7], for which the values for the binding signal in data set [1] and in data set [2] were 26.5 % bound and 25.4 % bound, respectively.

On to TCCCGTCGAGCCGGGGTATGATTATGGGTGGGGTGGCTGAGGATCGATC (ssDNA) [AMX(398)_A9], for which the binding signal in data set [1] came to 28.3 % bound; in data set [2], 29.7 % bound.

Take TCCCATGATTGGCCGGGGTGTCTTTTGGGTCGGGTGGCTGAGGATCGATC (ssDNA) [AMX(398)_C6]: the binding signal in data set [1] was 28 % bound; in data set [2], 11.6 % bound.

Take TCCCATGATCGGGTCGGTATTTGTTGGTCAGGGTGGCTGAGGATCGATC (ssDNA) [AMX(398)_D3]: the values for the binding signal in data set [1] and in data set [2] were 20 % bound and 20.8 % bound, respectively.

Consider TCCCATCGAACCTCGAGGGTATTGTTGGTTTGGGTGGCTGAGGATCGATC (ssDNA) [AMX(399)_H1], for which the figures for the binding signal in data set [1] and in data set [2] were 21.2 % bound and 20.4 % bound, respectively.

Turning to TCCCAAGGATCCGGGGTAGTTAGTGGCTGAGGTGGCTGAGGATCGATC (ssDNA) [AMX(398)_C2], the binding signal was determined as 0.2 % bound in data set [1] and 0.66 % bound in data set [2].

In the case of TCCCGATTTGAGTTTAGTAGGGTGGGTAGGATGGTGGCTGAGGATCGATC (ssDNA) [AMX(398)_D1], the values for the binding signal in data set [1] and in data set [2] were 20.7 % bound and 11.8 % bound, respectively.

For the molecule TCCCAGATGTGATCCGTATCCTGGTTTGGTTGGGTGGCTGAGGATCGATC (ssDNA) [AMX(398)_B3], the binding signal was 17.5 % bound in data set [1] and 16.5 % bound in data set [2].

Take TCCCAGCGGTCCTAATGGGTAGTGTTGGTTTGGGTGGCTGAGGATCGATC (ssDNA) [AMX(398)_D5]: the binding signal in data set [1] came out at 12 % bound; in data set [2], 12.9 % bound.

For TCCCAATCGAGCCGGGGTTTGTTTGTTCTGGGTGGCTGAGGATCGATC (ssDNA) [AMX(398)_B1], the binding signal was determined as 31.3 % bound in data set [1] and 32.7 % bound in data set [2].

As for TCCCTTGTCGATTCTGGTATGTTTTGGTCCGGGTGGCTGAGGATCGATC (ssDNA) [AMX(398)_D7], the values for the binding signal in data set [1] and in data set [2] were 35 % bound and 34.6 % bound, respectively.

With TCCCATCGATCTGTGGTGGTTTTGTGGCTTGGGTGGCTGAGGATCGATC (ssDNA) [AMX(399)_G8], the binding signal in data set [1] is 27.6 % bound; in data set [2], 25.9 % bound.

As to TCCCATTGATCTGTGGTGGTTTTGTGGTTTGGGTGGCTGAGGATCGATC (ssDNA) [AMX(398)_A2], the binding signal was 26.7 % bound in data set [1] and 28.4 % bound in data set [2].

With TCCCATCGATTTGGGGTATGTTATGGGCTCGGGTGGCTGAGGATCGATC (ssDNA) [AMX(398)_A6], the figures for the binding signal in data set [1] and in data set [2] were 31.1 % bound and 31.3 % bound, respectively.

With TCCCGTGAGAGCTGGGGTGTTTATATGGGTCGGGTGGCTGAGGATCGATC (ssDNA) [AMX(399)_G9], the values for the binding signal in data set [1] and in data set [2] were 21.3 % bound and 22.5 % bound, respectively.

Turning to TCCCGATTATCCGTTGGTATTGTTGGTCTGGGTGGCTGAGGATCGATC (ssDNA) [AMX(398)_B12], the values for the binding signal in data set [1] and in data set [2] were 20.1 % bound and 20.2 % bound, respectively.

For TCCCGATCGTTTCGTGGGGTAGTGTTGGTTGGGGTGGCTGAGGATCGATC (ssDNA) [AMX(398)_C9], the binding signal in data set [1] and in data set [2] was 20.7 % bound throughout.

As for TCCCAACGATCTGTGGTTTTTTTGTTCTGGGTGGCTGAGGATCGATC (ssDNA) [AMX(398)_C1], the binding signal in data set [1] was 35.8 % bound; in data set [2], 37 % bound.

As to TCCCTGGAGATCCGGGGTAGTATACTGGTTTGGGTGGCTGAGGATCGATC (ssDNA) [AMX(398)_A12], the binding signal in data set [1] is 35.4 % bound; in data set [2], 37.5 % bound.

Turning to TCCCTGCAATCGGTGCTCGAGAGGTTGGGTGGGTGGCTGAGGATCGATC (ssDNA) [AMX(398)_C12], the binding signal in data set [1] was 22.8 % bound; in data set [2] it was 15.5 % bound.

Turning to TCCCTGATCCTTAGGCTAGGTTGGGTGGGGTGGTGGCTGAGGATCGATC (ssDNA) [AMX(398)_B5], the values for the binding signal in data set [1] and in data set [2] were 12.5 % bound and 8.27 % bound, respectively.

Regarding TCCCTCGATCTTGGGGTACTATAGTGGTGTGGGTGGCTGAGGATCGATC (ssDNA) [AMX(398)_B10], the values for the binding signal in data set [1] and in data set [2] were 26.8 % bound and 25.7 % bound, respectively.

For the molecule TCCCGGTTGTCGATTCTGGTATTGTTGGGCTGGGTGGCTGAGGATCGATC (ssDNA) [AMX(399)_H7], the binding signal in data set [1] worked out at 38.1 % bound; in data set [2], 36.1 % bound.

On to TCCCTGGTATCGTATCCAAAGGGGTGGTGTGGGTGGCTGAGGATCGATC (ssDNA) [AMX(399)_H8], for which the binding signal in data set [1] was 23.3 % bound; in data set [2], 14.3 % bound.

As for TCCCGGATCCTCGTGGGTATTGTTGGGTTGGGTGGCTGAGGATCGATC (ssDNA) [AMX(399)_G12], the binding signal in data set [1] amounted to 40.6 % bound; in data set [2] it was 41.1 % bound.

TCCCATCGGTCCGGGGTAATTTACTGGGTCGGGTGGCTGAGGATCGATC (ssDNA) [AMX(398)_A8]: the binding signal in data set [1] amounted to 40 % bound; in data set [2], 43.9 % bound.

As for TCCCGGAGATCTGAGGTGTTTTATTGGTTTGGGTGGCTGAGGATCGATC (ssDNA) [AMX(399)_H6], the results for the binding signal in data set [1] and in data set [2] were 8.48 % bound and 6.32 % bound, respectively.

Consider TCCTGTCGATCGGTACGTTTTCGTTTCTGGGTGGCTGAGGATCGATC (ssDNA) [AMX(398)_C11], for which the results for the binding signal in data set [1] and in data set [2] were 35.1 % bound and 36.7 % bound, respectively.
